Test results taken from patent US20020164744A1, “Soluble, active recombinant human MAO-B” (priority 1999, published 2002).
Like-named read-outs stand apart in the source and are kept apart here.

B1: wild-type MAO-B: purified full-length recombinant human MAO-B with HIS6 tag expressed in S. cerevisiae (protein, UniProt P27338 1-520, looked up)
chain: MSNKCDVVVVGGGISGMAAAKLLHDSGLNVVVLEARDRVGGRTYTLRNQKVKYVDLGGSYVGPTQNRILRLAKELGLETYKVNEVERLIHHVKGKSYPFRGPFPPVWNPITYLDHNNFWRTMDDMGREIPSDAPWKAPLAEEWDNMTMKELLDKLCWTESAKQLATLFVNLCVTAETHEVSALWFLWYVKQCGGTTRIISTTNGGQERKFVGGSGQVSERIMDLLGDRVKLERPVIYIDQTRENVLVETLNHEMYEAKYVISAIPPTLGMKIHFNPPLPMMRNQMITRVPLGSVIKCIVYYKEPFWRKKDYCGTMIIDGEEAPVAYTLDDTKPEGNYAAIMGFILAHKARKLARLTKEERLKKLCELYAKVLGSLEALEPVHYEEKNWCEEQYSGGCYTTYFPPGILTQYGRVLRQPVDRIYFAGTETATHWSGYMEGAVEAGERAAREILHAMGKIPEDEIWQSEPESVDVPAQPITTTFLERHLPSVPGLLRLIGLTTIFSATALGFLAHKRGLLVRV
modifications: full-length His6 tag
notes: purified full-length recombinant human MAO-B with HIS6 tag expressed in S. cerevisiae
B2: Met1-Leu498: C-terminal deletion mutant of human MAO-B-HIS6, residues Met1-Leu498 (protein, UniProt P27338 1-498, looked up, fragment)
chain: MSNKCDVVVVGGGISGMAAAKLLHDSGLNVVVLEARDRVGGRTYTLRNQKVKYVDLGGSYVGPTQNRILRLAKELGLETYKVNEVERLIHHVKGKSYPFRGPFPPVWNPITYLDHNNFWRTMDDMGREIPSDAPWKAPLAEEWDNMTMKELLDKLCWTESAKQLATLFVNLCVTAETHEVSALWFLWYVKQCGGTTRIISTTNGGQERKFVGGSGQVSERIMDLLGDRVKLERPVIYIDQTRENVLVETLNHEMYEAKYVISAIPPTLGMKIHFNPPLPMMRNQMITRVPLGSVIKCIVYYKEPFWRKKDYCGTMIIDGEEAPVAYTLDDTKPEGNYAAIMGFILAHKARKLARLTKEERLKKLCELYAKVLGSLEALEPVHYEEKNWCEEQYSGGCYTTYFPPGILTQYGRVLRQPVDRIYFAGTETATHWSGYMEGAVEAGERAAREILHAMGKIPEDEIWQSEPESVDVPAQPITTTFLERHLPSVPGLLRLIGL
modifications: His6 tag
B3: Post-Superose 6 chromatography/concentrate: recombinant human MAO-B further resolved on Superose-6 size exclusion column and concentrated (protein, UniProt P27338 2-520, looked up)
Amine oxidase …: SNKCDVVVVGGGISGMAAAKLLHDSGLNVVVLEARDRVGGRTYTLRNQKVKYVDLGGSYVGPTQNRILRLAKELGLETYKVNEVERLIHHVKGKSYPFRGPFPPVWNPITYLDHNNFWRTMDDMGREIPSDAPWKAPLAEEWDNMTMKELLDKLCWTESAKQLATLFVNLCVTAETHEVSALWFLWYVKQCGGTTRIISTTNGGQERKFVGGSGQVSERIMDLLGDRVKLERPVIYIDQTRENVLVETLNHEMYEAKYVISAIPPTLGMKIHFNPPLPMMRNQMITRVPLGSVIKCIVYYKEPFWRKKDYCGTMIIDGEEAPVAYTLDDTKPEGNYAAIMGFILAHKARKLARLTKEERLKKLCELYAKVLGSLEALEPVHYEEKNWCEEQYSGGCYTTYFPPGILTQYGRVLRQPVDRIYFAGTETATHWSGYMEGAVEAGERAAREILHAMGKIPEDEIWQSEPESVDVPAQPITTTFLERHLPSVPGLLRLIGLTTIFSATALGFLAHKRGLLVRV
B4: IMAC eluted/concentrate: HIS-tagged recombinant human MAO-B from yeast extract, eluted from Ni-NTA IMAC column and concentrated (protein, UniProt P27338 2-520, looked up)
Amine oxidase …: B3 Amine oxidase …
modifications: His tag
notes: HIS-tagged recombinant human MAO-B from yeast extract, eluted from Ni-NTA IMAC column and concentrated

What was measured:
recombinant human MAO-B [1] = target: T1, recombinant human MAO-B (Homo sapiens, UniProt P27338); assay: MAO-B activity assay (reaction velocity, specific activity, Km) with 1-methyl-4-(1-methyl-2-pyrryl)-1,2,3,6-tetrahydropyridine as substrate; type: biochemical
T1 construct: DNA coding for the full length and truncated C-terminal HIS tagged MAO-B proteins, as described above; made in house; host or cells: Saccharomyces cerevisiae INVSc1
T1 sequence (P27338 1-520): B1 chain
Description: (§1) The MAO-B containing solutions, including fractions isolated from chromatography columns, were assayed to measure reaction velocity. The assays were carried out in a final volume of 200 μl in 50 mM sodium phosphate, 10 mM NaCl, pH 7.5, with 0.2 mM substrate (1-methyl-4-(1-methyl-2-pyrryl)-1,2,3,6-tetrahydropyridine) as described in Flaherty, et al., J. Med. Chem., 39:4756-4761 (1996) hereby incorporated by reference. Reaction velocity was followed at an absorbence of 420 nm at 37° C. in a SpectraMax 250 96-well plate reader. Specific activity measurements were made using a Shimadzu UV-2101PC spectrophotometer equipped with a Shimadzu temperature controller (TCC-controller) set to 37° C. Protein concentrations were determined using the Bio-Rad Protein Assay kit (Bio-Rad Laboratories, Hercules, Calif.).
(§2) Analysis of samples containing purified wild-typeMAO-B was carried out using 1-methyl-4-(1-methyl-2-pyrryl)-1,2,3,6-tetrahydropyridine as the substrate. The effect of protein concentration on activity was measured. […] The plot of MAO-B concentration vs. activity was a straight line. Variation of the substrate at a constant enzyme concentration was used to determine the Km for the substrate. […] Again, the reaction progress at each concentration of substrate was followed as straight lines with coefficients of correlation greater than 0.99.
(§3) The activity of samples containing the purified mutant MAO-B described in Example 1 above was also analyzed using 1-methyl-4-(1-methyl-2-pyrryl)-1,2,3,6-tetrahydropyridine as the substrate. Activity was highest for wild-type MAO-B followed by the MAO-B mutant Met1-Leu498 which had approximately 10% of wild-type activity. The two remaining C-terminal deletion mutants, Met1-Val470 and Met1-Val418, had about the same activities, less than 0.1% of wild-type MAO-B activity. This confirms that deletion or truncation of the C-terminus of human MAO-B causes loss of enzymatic activity.

recombinant human MAO-B [2] = assay: as above; type: biochemical; conditions: substrate 1-methyl-4-(1-methyl-2-pyrryl)-1,2,3,6-tetrahydropyridine; purified C-terminal deletion mutants
Description: as §1, §2, §3

[3] = substrate 1-methyl-4-(1-methyl-2-pyrryl)-1,2,3,6-tetrahydropyridine, 37° C., fraction after purification step
[4] = substrate 1-methyl-4-(1-methyl-2-pyrryl)-1,2,3,6-tetrahydropyridine, fraction after purification step, read-out: Km FOR SUBSTRATE

Row | Molecule | activity (rank among wild-type and mutants) (recombinant human MAO-B [1]; substrate 1-methyl-4-(1-methyl-2-pyrryl)-1,2,3,6-tetrahydropyridine) | Km (recombinant human MAO-B [1]; substrate 1-methyl-4-(1-methyl-2-pyrryl)-1,2,3,6-tetrahydropyridine varied at constant enzyme concentration, 37° C., read-out: Km for the substrate (Lineweaver Burke plot)) [µM] | activity relative to wild-type MAO-B activity (recombinant human MAO-B [2]) | SPECIFIC ACTIVITY (recombinant human MAO-B [1]; [3]) [nmol/min/mg] | Km (recombinant human MAO-B [1]; [4]) [µM]
1 | B1 | highest | 71.9 | – | – | –
2 | B2 | – | – | approximately 10% | – | –
3 | B3 | – | – | – | 80.6 | 55.4
4 | B4 | – | – | – | 8.7 | 71.9
